Measurements published in US20030125296.

What was measured:
[1] = tested on: E. coli-expressed NFκB p50
[2] = tested on: T1, RPRAATF substrate of glycogen synthase kinase 3β
T1 sequence: RPRAATF

[3] = tested on: Thioredoxin (Trx) alone, expressed in E. coli from a pET32 vector [thioredoxin: P0AA25]
[4] = tested on: Trx-IRDBP-1 fusion protein (His6-tagged thioredoxin fusion of the 1503 bp coding region of the cDNA SEQ ID NO: 44)
[5] = tested on: IRDBP-1 expressed from pCR IRDBP-1 in transfected COS 7 cells
Chain of IRDBP-1 expressed from pCR IRDBP-1 in transfected COS 7 cells (chain, as listed by the source): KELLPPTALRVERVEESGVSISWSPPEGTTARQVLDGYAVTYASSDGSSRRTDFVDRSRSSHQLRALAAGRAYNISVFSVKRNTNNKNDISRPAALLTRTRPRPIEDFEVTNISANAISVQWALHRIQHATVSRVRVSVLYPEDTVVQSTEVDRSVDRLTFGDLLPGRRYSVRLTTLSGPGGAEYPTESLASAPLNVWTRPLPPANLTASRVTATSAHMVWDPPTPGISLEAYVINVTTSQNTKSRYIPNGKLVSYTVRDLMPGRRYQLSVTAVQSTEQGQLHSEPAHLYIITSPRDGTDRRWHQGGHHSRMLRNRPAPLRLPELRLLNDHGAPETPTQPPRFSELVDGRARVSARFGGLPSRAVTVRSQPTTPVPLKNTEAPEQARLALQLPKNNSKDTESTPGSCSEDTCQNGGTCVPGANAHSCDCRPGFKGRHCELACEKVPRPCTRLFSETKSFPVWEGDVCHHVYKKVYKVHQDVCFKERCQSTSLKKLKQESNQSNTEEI

Chain of Trx-IRDBP-1 fusion protein (His6-tagged thioredoxin fusion of the 1503 bp coding region of the cDNA SEQ ID NO: 44) (chain, as listed by the source): as above
Chain of Thioredoxin (Trx) alone, expressed in E. coli from a pET32 vector [thioredoxin: P0AA25] (P0AA25 whole entry, the tested form may be a part): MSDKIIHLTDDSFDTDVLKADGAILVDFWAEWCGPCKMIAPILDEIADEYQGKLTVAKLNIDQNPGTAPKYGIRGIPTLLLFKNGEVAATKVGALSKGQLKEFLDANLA

Substance	in vitro phosphorylation with [γ-32P] ATP, SDS-PAGE [1]	in vitro phosphorylation with [γ-32P] ATP [2]	in vitro phosphorylation with [γ-32P] ATP, SDS-PAGE [3]	in vitro phosphorylation with [γ-32P] ATP, SDS-PAGE [4]	IRDBP-1-induced IRE transcription [5]	IRDBP-1-induced IRE activity (IRE-mediated transcription) [5]
Akt (endogenous, COS 7 cells)	Akt and Erk did not phosphorylate the controls of Trx alone, and the p50 subunit of NFκB	Akt phosphorylated the RPRAATF substrate of glycogen synthase kinase 3β, used as a positive control	Akt and Erk did not phosphorylate the controls of Trx alone, and the p50 subunit of NFκB	Akt and Erk Trx-IRDBP-1 were capable of phosphorylating Trx-IRDBP-1		
Erk2 (pUSEamp expression vector, cotransfected)					Erk2 decreased IRDBP-1-induced IRE transcription by 45±4% (lane 5 vs. lane 3)	
Erk (Erk1/2; endogenous, COS 7 cells)	Akt and Erk did not phosphorylate the controls of Trx alone, and the p50 subunit of NFκB		Akt and Erk did not phosphorylate the controls of Trx alone, and the p50 subunit of NFκB	Akt and Erk Trx-IRDBP-1 were capable of phosphorylating Trx-IRDBP-1		
wild-type Akt1 (pUSEamp expression vector, cotransfected)						Wild-type Akt1 expression, like Akt myr, stimulated IRDBP-1-induced IRE activity to the same extent as the addition of insulin (lane 7 vs. lane 4)
